Data as given in patent publication US20080194020A1, “Methods For Producing Dendritic Cells That Have Acquired Ctl-Inducing Ability” (Medical and Biological Laboratories Co., Ltd., priority 2004, published 2008).

Legend:
DC2.4 cells [1] = assay: Polyubiquitination of antigenic protein taken up by DC2.4 cells (SDS-PAGE, Western blot with anti-polyubiquitin antibody); type: cell-based, mouse
Description: There are reports that when the KDEL sequence (Lys-Asp-Glu-Leu) (SEQ ID NO: 3), an endoplasmic reticulum localization sequence, is added to the carboxyl terminus of a protein localized in the ER lumen, the protein is repeatedly transported between the ER and Golgi apparatus, and ERAD of that protein is promoted. Therefore, DC2.4 cells were made to take up OVA with KDEL (SEQ ID NO: 3) added to its C-terminus, and OVA that was polyubiquitinated after uptake was observed by SDS-PAGE and Western blotting. OVA to which a KDEL sequence (SEQ ID NO: 3) was added was constructed and expressed as follows: using a plasmid comprising a DNA sequence encoding OVA as a template, PCR was performed using oligo-1 (SEQ ID NO: 10) and oligo-2 (SEQ ID NO: 11) as primers. The amplified PCR product of approximately 1100 bp was introduced into a pCR-Blunt vector (Invitrogen) to obtain vector-1. Oligo-3 (SEQ ID NO: 12) and oligo-4 (SEQ ID NO: 13) were annealed, and the obtained gene fragment of approximately 100 bp was introduced into the pCR-Blunt vector to obtain vector-2. Vector-2 was digested with SpeI, the obtained gene fragment of approximately 130 bp was introduced into vector-1 that had been digested with NheI to obtain vector-3. An approximately 1250-bp gene fragment (OVA-KDEL) obtained when vector-3 was digested with BamHI/SpeI was introduced into a vector for gene expression, and then expressed. […]

DC2.4 cells [2] = assay: MHC class I cross-presentation by DC2.4 cells to OT-I CD8+ T cells (IL-2 ELISA); type: cell-based, mouse; conditions: for antigenicity for stimulation of CD8+ OT-I T cells: FIG. 8a, OVA compared with bOVA
Source text: Whether knock-down of cellular components involved in ERAD decreases the cross-presentation of exogenous OVA antigen was examined using a system for evaluating the level of antigen presentation, which uses naive CD8^+ T cells from OT-I mice and DC2.4 cells. The DC2.4 cells used as a model of dendritic cells are of the H-2Kb mouse MHC class I haplotype. OT-I (H-2Kb) mice are transgenic mice expressing a T cell receptor (TCRα and β) that recognizes an antigenic peptide (SIINFEKL) (SEQ ID NO: 15) derived from OVA presented on the H-2Kb molecules. The CD8^+ cells of OT-I mice are activated when they recognize OVA peptides presented by BMDCs derived from H-2Kb mice or by DC2.4 cells. When OVA or bOVA is incubated with and affixed onto DC2.4 cells and the cells are further incubated with naive CD8^+ T cells of OT-I mice, the amount of IL-2 produced by OT-I CD8^+ T cells serves as an index of T-cell stimulation as a result of OVA antigen presented by DC2.4 cells.
Parental or knocked-down DC2.4 cells were pre-incubated in a culture medium supplemented with 50 μg mL^−1 polymyxin B for 30 minutes in the presence or absence of lactacystin or MG-132, and incubated with OVA (250 μg mL^−1) or SIINFEKL peptides (10 ng mL^−1) for six hours. The cells were washed, fixed with 1% paraformaldehyde, and aliquoted into microtiter plates (5×10^4 per well). 5×10^4 CD8^+ T cells purified from splenocytes of OT-1 mice using magnetic beads were added to each well and after a 24-hour incubation, the IL-2 secretion was measured by ELISA (BD Biosciences) in triplicate.
DC2.4 cells were incubated with OVA (0, 50, or 250 μg/mL) in RPMI1640/10c% FCS for six hours at 37° C., in the presence or absence of pig-derived HSP90 (10 μg/mL). After washing away the antigen and HSP, OT-I CD8^+ T cells were added, cells were cultured overnight at 37° C., and the amount of IL-2 comprised in the supernatant was measured by the ELISA method.
The timing of the addition of HSP90 (10 μg/mL) and OVA (250 μg/mL) to DC2.4 cells was varied, and the effect on class I antigen presentation was observed. (i) HSP90 was added first, DC2.4 cells were washed, and then OVA was added. (ii) HSP90 and OVA were added simultaneously to DC2.4 cells. (iii) OVA was added first, and after washing DC2.4 cells, HSP90 was added. The results obtained under these three conditions were compared. […]
Under condition (i), HSP90 was added to DC2.4 cells, the cells were cultured for 30 minutes and then washed to remove HSP90. […] DC2.4 cells activated with OVA by the above procedure were plated in a 96-well plate, OT-I mouse-derived CD8^+ T cells were added to this, and after culturing overnight, the amount of IL-2 released into the supernatant was measured by ELISA. […]

DC2.4 cells [3] = assay: MHC class II antigen presentation by DC2.4 cells to OT-II CD4+ T cells (IL-2 production); type: cell-based, mouse; conditions: FIG. 9 control: DC2.4 cells cultured with OVA, no NH4Cl
Description: DC2.4 cells pretreated in the presence of NH4Cl were cultured with OVA, and then the stimulation of OT-I CD8^+ T cells in response to MHC class I antigen presentation (circles) and stimulation of OT-II CD4^+ T cells in response to MHC class II antigen presentation (triangles) was determined by measuring IL-2 production levels. IL-2 production level in the presence of NH4Cl was expressed as a ratio relative to the control (IL-2 production was 700 pg/mL relative to OT-I, and 20 pg mL relative to OT-II).

DC2.4 cells [4] = assay: Uptake of antigenic protein into DC2.4 cells; type: cell-based, mouse; conditions: CHIP-knocked-down DC2.4 cells
Description: Next, DC2.4 cells were incubated for a set amount of time with OVA in the presence or absence of lactacystin (LC), and OVA taken up into the cells was measured. OVA taken up into cells in the presence or absence of Hsp90 was measured similarly.

DC2.4 cells [5] = system: DC2.4 cells
Description: Intracellular localization of foreign antigens was examined by cell fractionation methods. Chicken ovalbumin (OVA) was used as an antigen model, and DC2.4 (haplotype H-2Kb), a cultured cell line of mouse dendritic cells, was used as a model for dendritic cells. […] BMDCs with a haplotype of H-2Kb, the same as that of DC2.4, were used as the control. BMDCs were induced from the bone marrow cells of C57BL/6 mice (SLC) in RPMI-1640 supplemented with 5% FCS using 5 ng/mL GM-CSF (MEL), and those cells purified by magnetic beads after five days of culturing were used.
DC2.4 cells made to take up bOVA antigens were suspended in 10 mM Tris-HCl (pH7.4) containing 250 mM sucrose, this was homogenized using glass beads, centrifuged for 30 minutes at 250,000×g, and then fractionated. The supernatant was used as the soluble fraction; the precipitates were suspended in the same buffer as described above and used as the microsomal fraction. A fixed amount was incubated in the presence or absence of 1% TritonX-100, and together with or without 100 μg mL^−1 trypsin. Before collecting bOVA, soybean trypsin inhibitor (Sigma) was added at 500 μg mL^−1.

Molecule | polyubiquitination of the substrate compared to OVA (DC2.4 cells [1]; DC2.4 cells made to take up OVA with KDEL added to its C-terminus) | antigen presentation level compared to OVA (OT-I CD8+ T cells) (DC2.4 cells [2]; DC2.4 cells, data not shown) | IL-2 production, OT-II CD4+ T cells (DC2.4 cells [3]) [pg·mL] | antigenicity for stimulation of CD8+ OT-I T cells (DC2.4 cells [2]) | IL-2 production, OT-I CD8+ T cells (DC2.4 cells [2]; FIG. 9 control: DC2.4 cells cultured with OVA, no NH4Cl) [pg/mL] | polyubiquitination of bOVA (DC2.4 cells [1]; CHIP-knocked-down DC2.4 cells) [%] | uptake of bOVA relative to parental DC2.4 cells (DC2.4 cells [4]) | share of bOVA taken up by cells recovered as trypsin-resistant bOVA from the microsomal fraction (DC2.4 cells [5]) [%]
OVA-KDEL: OVA with the endoplasmic reticulum localization sequence KDEL added to its C-terminus, SEQ ID NO: 14 (protein) MGSIGAASMEFCFDVFKELKVHHANENIFYCPIAIMSALAMVYLGAKDSTRTQINKVVRFDKLPGFGDSIEAQCGTSVNVHSSLRDILNQITKPNDVYSFSLASRLYAEERYPILPEYLQCVKELYRGGLEPINFQTAADQARELINSWVESQTNGIIRNVLQPSSVDSQTAMVLVNAIVFKGLWEKAFKDEDTQAMPFRVTEQESKPVQMMYQIGLFRVASMASEKMKILELPFASGTMSMLVLLPDEVSGLEQLESIINFEKLTEWTSSNVMEERKIKVYLPRMKMEEKYNLTSVLMAMGITDVFSSSANLSGISSAESLKISQAVHAAHAEINEAGREVVGSAEAGVDAASVSEEFRADHPFLFCIKHIATNAVLFFGRCVSPASAEDYEYPSRSNGTKNNTSQASKDEL | significantly promoted polyubiquitination | clearly found to be stronger | – | – | – | – | – | –
OVA: Chicken ovalbumin used as an antigen model (protein) GSIGAASMEFCFDVFKELKVHHANENIFYCPIAIMSALAMVYLGAKDSTRTQINKVVRFDKLPGFGDSIEAQCGTSVNVHSSLRDILNQITKPNDVYSFSLASRLYAEERYPILPEYLQCVKELYRGGLEPINFQTAADQARELINSWVESQTNGIIRNVLQPSSVDSQTAMVLVNAIVFKGLWEKAFKDEDTQAMPFRVTEQESKPVQMMYQIGLFRVASMASEKMKILELPFASGTMSMLVLLPDEVSGLEQLESIINFEKLTEWTSSNVMEERKIKVYLPRMKMEEKYNLTSVLMAMGITDVFSSSANLSGISSAESLKISQAVHAAHAEINEAGREVVGSAEAGVDAASVSEEFRADHPFLFCIKHIATNAVLFFGRCVSP | – | – | 20 | equally antigenic | 700 | – | – | –
bOVA: OVA antigen recovered with streptavidin beads (biotin-labeled samples) (protein) GSIGAASMEFCFDVFKELKVHHANENIFYCPIAIMSALAMVYLGAKDSTRTQINKVVRFDKLPGFGDSIEAQCGTSVNVHSSLRDILNQITKPNDVYSFSLASRLYAEERYPILPEYLQCVKELYRGGLEPINFQTAADQARELINSWVESQTNGIIRNVLQPSSVDSQTAMVLVNAIVFKGLWEKAFKDEDTQAMPFRVTEQESKPVQMMYQIGLFRVASMASEKMKILELPFASGTMSMLVLLPDEVSGLEQLESIINFEKLTEWTSSNVMEERKIKVYLPRMKMEEKYNLTSVLMAMGITDVFSSSANLSGISSAESLKISQAVHAAHAEINEAGREVVGSAEAGVDAASVSEEFRADHPFLFCIKHIATNAVLFFGRCVSP | – | – | – | equally antigenic | – | 34 | about 70% | ≥ 70
